US20200277339A1 (GENOME PROTECTION, published 2020)
Positions count from the first letter of the chain named.

B1: CBLB502 (ligand)
chain: not shown
B2: CBLB502 variant 467 (ligand)
chain: MRGSHHHHHHGMASMTGGQQMGRDLYDLVPRGSAKDPMAQVINTNSLSLLTQNNLNKSQSSLSSAIERLSSGLRINSAKDDAAGQAIANRFTSNIKGLTQASRNANDGISIAQTTEGALNEINNNLQRVRELSVQATNGTNSDSDLKSIQDEIQQRLEEIDRVSNQTQFNGVKVLSQDNQMKIQVGANDGETITIDLQKIDVKSLGLDGFNVNSPGISGGGGGILDSMGTLINEDAAAAKKSTANPLASIDSALSKVDAVRSSLGAIQNRFDSAITNLGNTVTNLNSARSRIEDA
B3: CBLB502 variant MF227C (ligand)
chain: MSGLRINSAKDDAAGQAIANRFTSNIKGLTQASRNANDGISIAQTTEGALNEINNNLQRVRELSVQATNGTNSDSDLKSIQDEIQQRLEEIDRVSNQTQFNGVKVLSQDNQMKIQVGANDGETITIDLQKIDVKSLGLDGFNVNSPGSTANPLASIDSALSKVDAVRSSLGAIQNRFDSAITNLGNTVTNLNSARSRIEDADYANQVPQNVLSLLVPRGSHHHHHHG
B4: CBLB502 variant 485D (ligand)
chain: MSGLRINSAKDDAAGQAIANRFTSNIKGLTQASRNANDGISIAQTTEGALNEINNNLQRVRELSVQATNGTNSDSDLKSIQDEIQQRLEEIDRVSNQTQFNGVKVLSQDNQMKIQVGANDGETITIDLQKIDVKSLGLDGFNVNSPGSTANPLASIDSALSKVDAVRSSLGAIDSAITALGNTVTNLNSARSRIEDADYATEVSNMSKAQILQQAGLVPRGSHHHHHHG
B5: CBLB502 variant 445 (ligand)
chain: MRGSHHHHHHGMASMTGGQQMGRDLYDLVPRGSAKDPMAQVINTNSLSLLTQNNLNKSQSSLSSAIERLSSGLRINSAKDDAAGQAIANRFTSNIKGLTQASRNANDGISIAQTTEGALNEINNNLQRVRELSVQATNGTNSDSDLKSIQDEIQQRLEEIDRVSNQTQFNGVKVLSQDNQMKIQVGANDGETITIDLQKIDVKSLGLDGFNVNSPGISGGGGGILDSMGTLINEDAAAAKKSTANPLASIDSALSKVDAVRSSLGAIQNRFD
B6: CBLB502 variant 461 (ligand)
chain: MRGSHHHHHHGMASMTGGQQMGRDLYDLVPRGSAKDPMAQVINTNSLSLLTQNNLNKSQSSLSSAIERLSSGLRINSAKDDAAGQAIANRFTSNIKGLTQASRNANDGISIAQTTEGALNEINNNLQRVRELSVQATNGTNSDSDLKSIQDEIQQRLEEIDRVSNQTQFNGVKVLSQDNQMKIQVGANDGETITIDLQKIDVKSLGLDGFNVNSPGISGGGGGILDSMGTLINEDAAAAKKSTANPLASIDSALSKVDAVRSSLGAIQNRFDSAITNLGNTVTNLNSAR
B7: CBLB502 mutant MIM1 (ligand)
chain: MRGSHHHHHHGMASMTGGQQMGRDLYDDDDKDPMAQVINTNSLSLLTQNNLNKSQSSLSSAIERLSSGLRINSAKDDAAGQAIANRFTSNIKGLTQASRNANDGISIAQTTEGALNEINNNLQRVRELSVQATNGTNSDSDLKSIQDEIQQRLEEIDRVSNQTQFNGVKVLSQDNQMKIQVGANDGETITIDLQKIDVKSLGLDGFNVNSPGISGGGGGILDSMGTLINEDAAAAKKSTANPLASIDSALSKVDAVRSSLGAIQNRFDSAITNLGNTVTALASARSRIEDADYATEVSNMSKAQILQQAGTSVLAQANQVPQNVLSLLR
B8: CBLB502 mutant MIM2 (ligand)
chain: B7 chain with R285A
B9: CBLB502 mutant MIM3 (ligand)
chain: B7 chain with N273A, N276A, R285A
B10: CBLB502 mutant MIM4 (ligand)
chain: MRGSHHHHHHGMASMTGGQQMGRDLYDDDDKDPMAQVINTNSLSLLTQNNLNKSQSSLSSAIERLSSGLRINSAKDDAAGQAIANRFTSNIKGLTQASRNANDGISIAQTTEGALNEINNNLQRVRELSVQATNGTNSDSDLKSIQDEIQQRLEEIDRVSNQTQFNGVKVLSQDNQMKIQVGANDGETITIDLQKIDVKSLGLDGFNVNSPGISGGGGGILDSMGTLINEDAAAAKKSTANPLASIDSALSKVDAVRSSLGAIDSAITALGATVTALASAASRIEDADYATEVSNMSKAQILQQAGTSVLAQANQVPQNVLSLLR
B11: CBLB502 mutant MIM5 (ligand)
chain: B7 chain with Q264A, N265K, R266A, N273A, N276A, R285A
B12: CBLB502 mutant 33MIMX (ligand)
chain: MRGSHHHHHHGMASMTGGQQMGRDLYDLVPRGSAKDPSGLRINSAKDDAAGQAIANRFTSNIKGLTQASRNAADGISIAQTTEGALNEINNNLQRVRELSVQATNGTNSDSDLKSIQDEIQQRLEEIDRVSNQTQANGVKVLSQDNAMKIQVGANDGAAITIDLQKIDVKSLGLDGFNVNSPGISGGGGGILDSMGTLINEDAAAAKKSTANPLASIDSALSKVDAVRSSLGAIQARFAAAIANLGNTVTNLNSARSRIEDADYATEVSNMSKAQILQQAGTSVLAQANQVPQNVLSLLR
B13: CBLB502 mutant MIXC (ligand)
chain: MSGLRINSAKDDAAGQAIANRFTSNIKGLTQASRNANDGISIAQTTEGALNEINNNLQRVRELSVQATNGTNSDSDLKSIQDEIQQRLEEIDRVSNQTQFNGVKVLSQDNQMKIQVGANDGETITIDLQKIDVKSLGLDGFNVNSPGSTANPLASIDSALSKVDAVRSSLGAIQARFAAAIANLGNTVTNLNSARSRIEDADYATEVSNMSKAQILQQAGTSVLAQANQVPQNVLSLLVPRGSHHHHHHG

target: TLR5 of the cell-based reporter assays; experiment: cell-based or functional assay

Row | Binder | Relative EC50 vs 502, Signaling (LecZ) | Relative EC50 vs 502, Signaling (Luc)
1 | B1 | 1 fold vs 502 | 1 fold vs 502
2 | B2 | 57 fold vs 502 | 71 fold vs 502
3 | B3 | 5.5 fold vs 502 | 
4 | B4 | 44 fold vs 502 | 
5 | B5 | 694 fold vs 502 | 141000 fold vs 502
6 | B6 | 105 fold vs 502 | 97 fold vs 502

target: TLR5 of the cell-based reporter assays; experiment: cell-based or functional assay; remark: another data set of the same source

Row | Binder | Signaling EC50 Normalized by CBLB502
7 | B7 | 0.9 fold vs CBLB502
8 | B8 | 1.2 fold vs CBLB502
9 | B9 | 4.6 fold vs CBLB502
10 | B10 | 37 fold vs CBLB502
11 | B11 | 54 fold vs CBLB502
12 | B12 | 1.3 fold vs CBLB502
13 | B13 | 1.5 fold vs CBLB502
